Article PMC9482650, “Quantitative fragmentomics allow affinity mapping of interactomes” (Nature Communications, 2022)

T1: TJP3_3, O95049
T1 sequence (O95049 375-456, limits assumed, looked up): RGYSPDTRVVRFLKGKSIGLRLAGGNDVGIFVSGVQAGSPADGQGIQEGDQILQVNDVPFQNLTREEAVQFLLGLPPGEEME

T2: APBA2_1, Q99767
T2 sequence (Q99767 563-664, limits assumed, looked up): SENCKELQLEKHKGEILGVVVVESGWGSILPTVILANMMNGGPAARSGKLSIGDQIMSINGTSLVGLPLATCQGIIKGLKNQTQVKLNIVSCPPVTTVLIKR

T3: NHERF3_3, Q5T2W1
T3 sequence (Q5T2W1 238-333, limits assumed, looked up): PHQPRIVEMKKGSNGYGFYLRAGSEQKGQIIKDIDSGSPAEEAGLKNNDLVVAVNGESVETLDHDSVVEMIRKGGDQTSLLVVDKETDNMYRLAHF

T4: PARD3B_1, Q8TEW8
T4 sequence (Q8TEW8 196-299, limits assumed, looked up): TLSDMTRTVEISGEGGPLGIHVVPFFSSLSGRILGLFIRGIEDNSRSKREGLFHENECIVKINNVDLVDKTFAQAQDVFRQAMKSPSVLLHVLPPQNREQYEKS

T5: PDZD7_3, Q9H5P4
T5 sequence (Q9H5P4 857-944, limits assumed, looked up): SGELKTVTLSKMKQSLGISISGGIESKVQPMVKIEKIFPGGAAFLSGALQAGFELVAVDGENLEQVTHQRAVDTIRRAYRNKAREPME

T6: DVL3, Q92997
T6 sequence (Q92997 244-331, limits assumed, looked up): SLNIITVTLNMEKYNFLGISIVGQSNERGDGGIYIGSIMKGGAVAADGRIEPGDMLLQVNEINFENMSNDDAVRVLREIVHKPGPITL

T7: SIPA1L2, Q9P2F8
T7 sequence (Q9P2F8 945-1036, limits assumed, looked up): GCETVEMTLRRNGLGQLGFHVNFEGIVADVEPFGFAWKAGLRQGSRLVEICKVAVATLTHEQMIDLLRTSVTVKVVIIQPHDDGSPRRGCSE

T8: HTRA3, P83110
T8 sequence (P83110 354-453, limits assumed, looked up): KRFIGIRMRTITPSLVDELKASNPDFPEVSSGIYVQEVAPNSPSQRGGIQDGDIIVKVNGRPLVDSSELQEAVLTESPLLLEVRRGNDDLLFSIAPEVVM

T9: APBA3_1, O96018
T9 sequence (O96018 389-490, limits assumed, looked up): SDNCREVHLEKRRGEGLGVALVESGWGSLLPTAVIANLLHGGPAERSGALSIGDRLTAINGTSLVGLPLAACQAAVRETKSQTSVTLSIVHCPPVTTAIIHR

T10: SNTG1, Q9NSN8
T10 sequence (Q9NSN8 52-150, limits assumed, looked up): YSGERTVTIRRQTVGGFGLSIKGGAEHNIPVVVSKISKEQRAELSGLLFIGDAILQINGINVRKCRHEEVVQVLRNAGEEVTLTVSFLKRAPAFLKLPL

T11: DFNB31_2, Q9P202
T11 sequence (Q9P202 274-371, limits assumed, looked up): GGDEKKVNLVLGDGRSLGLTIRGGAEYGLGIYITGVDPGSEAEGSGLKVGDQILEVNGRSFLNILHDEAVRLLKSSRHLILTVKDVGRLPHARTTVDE

T12: SNTA1, Q13424
T12 sequence (Q13424 82-180, limits assumed, looked up): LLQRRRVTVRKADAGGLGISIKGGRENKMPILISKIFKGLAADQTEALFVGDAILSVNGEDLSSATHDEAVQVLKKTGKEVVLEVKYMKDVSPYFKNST


Each binder was assayed against SCRIB_1, Q14160 (assay: holdup assay). Conditions: plain residues with an end cap or a label only (N-terminal biotin on a linker: ado-ado).
Set-up: key: below the threshold = too weak to quantify, mostly under pKd 3.1 to 4

Sequence of SCRIB_1, Q14160 (Q14160 718-814): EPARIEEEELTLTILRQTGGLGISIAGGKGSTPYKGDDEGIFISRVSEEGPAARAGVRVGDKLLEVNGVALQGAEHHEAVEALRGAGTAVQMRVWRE

Row | Binder | pKd
1 | EVEEFPETSV [TRPV3, Q8NET8] | 4.54
2 | LPHPHSTTRV [NLGN2, Q8NFZ4] | below the threshold

Each binder was assayed against T1, TJP3_3, O95049 (assay: holdup assay). Conditions: plain residues with an end cap or a label only (N-terminal biotin on a linker: ado-ado).
Set-up: key: below the threshold = too weak to quantify, mostly under pKd 3.1 to 4

Row | Binder | pKd
3 | EVEEFPETSV [TRPV3, Q8NET8] | 3.57
4 | LPHPHSTTRV [NLGN2, Q8NFZ4] | below the threshold

Each binder was assayed against SCRIB_3, Q14160 (assay: holdup assay). Conditions: plain residues with an end cap or a label only (N-terminal biotin on a linker: ado-ado).
Set-up: key: below the threshold = too weak to quantify, mostly under pKd 3.1 to 4

Sequence of SCRIB_3, Q14160 (Q14160 999-1103): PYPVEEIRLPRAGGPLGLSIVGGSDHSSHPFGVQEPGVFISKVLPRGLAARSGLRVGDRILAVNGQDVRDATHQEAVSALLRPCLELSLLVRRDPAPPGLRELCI

Row | Binder | pKd
5 | EVEEFPETSV [TRPV3, Q8NET8] | 5.02
6 | LPHPHSTTRV [NLGN2, Q8NFZ4] | below the threshold

Each binder was assayed against NHERF4_2, Q86UT5 (assay: holdup assay). Conditions: plain residues with an end cap or a label only (N-terminal biotin on a linker: ado-ado).
Set-up: key: below the threshold = too weak to quantify, mostly under pKd 3.1 to 4

Sequence of NHERF4_2, Q86UT5 (Q86UT5 220-308): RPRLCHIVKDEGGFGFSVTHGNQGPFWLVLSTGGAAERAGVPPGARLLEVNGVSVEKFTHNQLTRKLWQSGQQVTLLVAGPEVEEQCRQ

Row | Binder | pKd
7 | EVEEFPETSV [TRPV3, Q8NET8] | below the threshold
8 | LPHPHSTTRV [NLGN2, Q8NFZ4] | below the threshold

The binders below were run against T2, APBA2_1, Q99767 (assay: holdup assay). Conditions: plain residues with an end cap or a label only (N-terminal biotin on a linker: ado-ado).
Set-up: key: below the threshold = too weak to quantify, mostly under pKd 3.1 to 4

Row | Binder | pKd
9 | EVEEFPETSV [TRPV3, Q8NET8] | below the threshold
10 | LPHPHSTTRV [NLGN2, Q8NFZ4] | below the threshold

Each binder was assayed against TJP1_2, Q07157 (assay: holdup assay). Conditions: plain residues with an end cap or a label only (N-terminal biotin on a linker: ado-ado).
Set-up: key: below the threshold = too weak to quantify, mostly under pKd 3.1 to 4

Sequence of TJP1_2, Q07157 (Q07157 181-274): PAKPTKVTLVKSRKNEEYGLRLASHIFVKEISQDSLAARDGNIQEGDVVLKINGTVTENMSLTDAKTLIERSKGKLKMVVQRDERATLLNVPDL

Row | Binder | pKd
11 | EVEEFPETSV [TRPV3, Q8NET8] | 3.52
12 | LPHPHSTTRV [NLGN2, Q8NFZ4] | below the threshold

The binders below were run against T3, NHERF3_3, Q5T2W1 (assay: holdup assay). Conditions: plain residues with an end cap or a label only (N-terminal biotin on a linker: ado-ado).
Set-up: key: below the threshold = too weak to quantify, mostly under pKd 3.1 to 4

Row | Binder | pKd
13 | EVEEFPETSV [TRPV3, Q8NET8] | below the threshold
14 | LPHPHSTTRV [NLGN2, Q8NFZ4] | below the threshold

Each binder was assayed against DLG2_2, Q15700 (assay: holdup assay). Conditions: plain residues with an end cap or a label only (N-terminal biotin on a linker: ado-ado).
Set-up: key: below the threshold = too weak to quantify, mostly under pKd 3.1 to 4

Sequence of DLG2_2, Q15700 (Q15700 189-283): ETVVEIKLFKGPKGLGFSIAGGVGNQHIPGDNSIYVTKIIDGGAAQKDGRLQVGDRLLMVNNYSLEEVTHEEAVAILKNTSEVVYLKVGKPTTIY

Row | Binder | pKd
15 | EVEEFPETSV [TRPV3, Q8NET8] | 4.2
16 | LPHPHSTTRV [NLGN2, Q8NFZ4] | 3.59

These binders were tested against GRIP2_3, Q9C0E4 (assay: holdup assay). Conditions: plain residues with an end cap or a label only (N-terminal biotin on a linker: ado-ado).
Set-up: key: below the threshold = too weak to quantify, mostly under pKd 3.1 to 4

Sequence of GRIP2_3, Q9C0E4 (Q9C0E4 238-339): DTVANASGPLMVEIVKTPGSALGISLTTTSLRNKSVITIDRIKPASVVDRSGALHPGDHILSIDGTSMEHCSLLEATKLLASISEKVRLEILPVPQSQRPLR

Row | Binder | pKd
17 | EVEEFPETSV [TRPV3, Q8NET8] | below the threshold
18 | LPHPHSTTRV [NLGN2, Q8NFZ4] | 3.52

The binders below were run against LIMK2, P53671 (assay: holdup assay). Conditions: plain residues with an end cap or a label only (N-terminal biotin on a linker: ado-ado).
Set-up: key: below the threshold = too weak to quantify, mostly under pKd 3.1 to 4

Sequence of LIMK2, P53671 (P53671 143-248): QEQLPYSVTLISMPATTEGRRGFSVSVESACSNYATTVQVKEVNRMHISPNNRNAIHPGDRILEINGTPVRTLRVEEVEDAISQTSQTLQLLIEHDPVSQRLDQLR

Row | Binder | pKd
19 | EVEEFPETSV [TRPV3, Q8NET8] | below the threshold
20 | LPHPHSTTRV [NLGN2, Q8NFZ4] | below the threshold

What follows are binders tested against PARD3_3, Q8TEW0 (assay: holdup assay). Conditions: plain residues with an end cap or a label only (N-terminal biotin on a linker: ado-ado).
Set-up: key: below the threshold = too weak to quantify, mostly under pKd 3.1 to 4

Sequence of PARD3_3, Q8TEW0 (Q8TEW0 582-685): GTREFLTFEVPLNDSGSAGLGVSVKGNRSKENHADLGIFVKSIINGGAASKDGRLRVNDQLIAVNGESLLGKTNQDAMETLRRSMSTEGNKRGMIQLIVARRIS

Row | Binder | pKd
21 | EVEEFPETSV [TRPV3, Q8NET8] | 3.85
22 | LPHPHSTTRV [NLGN2, Q8NFZ4] | below the threshold

Each binder was assayed against MAGI1_2, Q96QZ7 (assay: holdup assay). Conditions: plain residues with an end cap or a label only (N-terminal biotin on a linker: ado-ado).
Set-up: key: below the threshold = too weak to quantify, mostly under pKd 3.1 to 4

Sequence of MAGI1_2, Q96QZ7 (Q96QZ7 456-580): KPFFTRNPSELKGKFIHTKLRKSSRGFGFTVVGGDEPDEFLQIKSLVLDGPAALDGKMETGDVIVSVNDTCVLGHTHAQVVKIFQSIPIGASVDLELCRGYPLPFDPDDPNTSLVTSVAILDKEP

Row | Binder | pKd
23 | EVEEFPETSV [TRPV3, Q8NET8] | 3.63
24 | LPHPHSTTRV [NLGN2, Q8NFZ4] | 4.13

These binders were tested against T4, PARD3B_1, Q8TEW8 (assay: holdup assay). Conditions: plain residues with an end cap or a label only (N-terminal biotin on a linker: ado-ado).
Set-up: key: below the threshold = too weak to quantify, mostly under pKd 3.1 to 4

Row | Binder | pKd
25 | EVEEFPETSV [TRPV3, Q8NET8] | below the threshold
26 | LPHPHSTTRV [NLGN2, Q8NFZ4] | below the threshold

The binders below were run against T5, PDZD7_3, Q9H5P4 (assay: holdup assay). Conditions: plain residues with an end cap or a label only (N-terminal biotin on a linker: ado-ado).
Set-up: key: below the threshold = too weak to quantify, mostly under pKd 3.1 to 4

Row | Binder | pKd
27 | EVEEFPETSV [TRPV3, Q8NET8] | 4.82
28 | LPHPHSTTRV [NLGN2, Q8NFZ4] | 4.26

What follows are binders tested against T6, DVL3, Q92997 (assay: holdup assay). Conditions: plain residues with an end cap or a label only (N-terminal biotin on a linker: ado-ado).
Set-up: key: below the threshold = too weak to quantify, mostly under pKd 3.1 to 4

Row | Binder | pKd
29 | EVEEFPETSV [TRPV3, Q8NET8] | 3.59
30 | LPHPHSTTRV [NLGN2, Q8NFZ4] | below the threshold

These binders were tested against T7, SIPA1L2, Q9P2F8 (assay: holdup assay). Conditions: plain residues with an end cap or a label only (N-terminal biotin on a linker: ado-ado).
Set-up: key: below the threshold = too weak to quantify, mostly under pKd 3.1 to 4

Row | Binder | pKd
31 | EVEEFPETSV [TRPV3, Q8NET8] | 3.55
32 | LPHPHSTTRV [NLGN2, Q8NFZ4] | below the threshold

These binders were tested against T8, HTRA3, P83110 (assay: holdup assay). Conditions: plain residues with an end cap or a label only (N-terminal biotin on a linker: ado-ado).
Set-up: key: below the threshold = too weak to quantify, mostly under pKd 3.1 to 4

Row | Binder | pKd
33 | EVEEFPETSV [TRPV3, Q8NET8] | below the threshold
34 | LPHPHSTTRV [NLGN2, Q8NFZ4] | below the threshold

The binders below were run against T9, APBA3_1, O96018 (assay: holdup assay). Conditions: plain residues with an end cap or a label only (N-terminal biotin on a linker: ado-ado).
Set-up: key: below the threshold = too weak to quantify, mostly under pKd 3.1 to 4

Row | Binder | pKd
35 | EVEEFPETSV [TRPV3, Q8NET8] | below the threshold
36 | LPHPHSTTRV [NLGN2, Q8NFZ4] | below the threshold

These binders were tested against T10, SNTG1, Q9NSN8 (assay: holdup assay). Conditions: plain residues with an end cap or a label only (N-terminal biotin on a linker: ado-ado).
Set-up: key: below the threshold = too weak to quantify, mostly under pKd 3.1 to 4

Row | Binder | pKd
37 | EVEEFPETSV [TRPV3, Q8NET8] | 5.53
38 | LPHPHSTTRV [NLGN2, Q8NFZ4] | below the threshold

Each binder was assayed against T11, DFNB31_2, Q9P202 (assay: holdup assay). Conditions: plain residues with an end cap or a label only (N-terminal biotin on a linker: ado-ado).
Set-up: key: below the threshold = too weak to quantify, mostly under pKd 3.1 to 4

Row | Binder | pKd
39 | EVEEFPETSV [TRPV3, Q8NET8] | 3.5
40 | LPHPHSTTRV [NLGN2, Q8NFZ4] | below the threshold

These binders were tested against ARHGEF12, Q9NZN5-2 (assay: holdup assay). Conditions: plain residues with an end cap or a label only (N-terminal biotin on a linker: ado-ado).
Set-up: key: below the threshold = too weak to quantify, mostly under pKd 3.1 to 4

Sequence of ARHGEF12, Q9NZN5-2 (Q9NZN5 other isoform, or with tags, fused parts or gaps): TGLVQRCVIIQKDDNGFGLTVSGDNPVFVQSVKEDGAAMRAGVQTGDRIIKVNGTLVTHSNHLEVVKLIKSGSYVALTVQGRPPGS

Row | Binder | pKd
41 | EVEEFPETSV [TRPV3, Q8NET8] | 3.94
42 | LPHPHSTTRV [NLGN2, Q8NFZ4] | 3.84

What follows are binders tested against GORASP1, Q9BQQ3 (assay: holdup assay). Conditions: plain residues with an end cap or a label only (N-terminal biotin on a linker: ado-ado).
Set-up: key: below the threshold = too weak to quantify, mostly under pKd 3.1 to 4

Sequence of GORASP1, Q9BQQ3 (Q9BQQ3 1-208): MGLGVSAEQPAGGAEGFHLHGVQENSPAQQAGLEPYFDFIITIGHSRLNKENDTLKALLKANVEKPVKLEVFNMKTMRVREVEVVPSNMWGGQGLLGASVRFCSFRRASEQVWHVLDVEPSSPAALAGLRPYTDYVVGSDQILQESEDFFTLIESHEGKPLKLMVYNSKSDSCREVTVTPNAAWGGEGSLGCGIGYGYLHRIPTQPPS

Row | Binder | pKd
43 | EVEEFPETSV [TRPV3, Q8NET8] | 3.54
44 | LPHPHSTTRV [NLGN2, Q8NFZ4] | 3.58

Each binder was assayed against CASK, O14936 (assay: holdup assay). Conditions: plain residues with an end cap or a label only (N-terminal biotin on a linker: ado-ado).
Set-up: key: below the threshold = too weak to quantify, mostly under pKd 3.1 to 4

Sequence of CASK, O14936 (O14936 487-570): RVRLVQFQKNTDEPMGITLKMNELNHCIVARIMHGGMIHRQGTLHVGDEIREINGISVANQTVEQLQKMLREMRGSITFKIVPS

Row | Binder | pKd
45 | EVEEFPETSV [TRPV3, Q8NET8] | below the threshold
46 | LPHPHSTTRV [NLGN2, Q8NFZ4] | below the threshold

Each binder was assayed against T12, SNTA1, Q13424 (assay: holdup assay). Conditions: plain residues with an end cap or a label only (N-terminal biotin on a linker: ado-ado).
Set-up: key: below the threshold = too weak to quantify, mostly under pKd 3.1 to 4

Row | Binder | pKd
47 | EVEEFPETSV [TRPV3, Q8NET8] | 5.22
48 | LPHPHSTTRV [NLGN2, Q8NFZ4] | 4.18

Each binder was assayed against GRIP2_7, Q9C0E4 (assay: holdup assay). Conditions: plain residues with an end cap or a label only (N-terminal biotin on a linker: ado-ado).
Set-up: key: below the threshold = too weak to quantify, mostly under pKd 3.1 to 4

Sequence of GRIP2_7, Q9C0E4 (Q9C0E4 934-1023): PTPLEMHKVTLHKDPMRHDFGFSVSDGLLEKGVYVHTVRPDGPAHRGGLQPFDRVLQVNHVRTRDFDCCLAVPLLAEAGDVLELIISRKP

Row | Binder | pKd
49 | EVEEFPETSV [TRPV3, Q8NET8] | 3.58
50 | LPHPHSTTRV [NLGN2, Q8NFZ4] | below the threshold

The binders below were run against TJP2_1, Q9UDY2 (assay: holdup assay). Conditions: plain residues with an end cap or a label only (N-terminal biotin on a linker: ado-ado).
Set-up: key: below the threshold = too weak to quantify, mostly under pKd 3.1 to 4

Sequence of TJP2_1, Q9UDY2 (Q9UDY2 24-128): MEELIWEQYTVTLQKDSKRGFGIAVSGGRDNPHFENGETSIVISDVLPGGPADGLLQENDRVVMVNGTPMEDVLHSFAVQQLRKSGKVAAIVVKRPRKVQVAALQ

Row | Binder | pKd
51 | EVEEFPETSV [TRPV3, Q8NET8] | below the threshold
52 | LPHPHSTTRV [NLGN2, Q8NFZ4] | 3.97
